Source: patent US20200057058A1 (MIT, published 2020)

Assays:
streptavidin [1] = target: T1, streptavidin (UniProt P22629 37-163, limits assumed); test: fluorescent binding curve, labeled SA in 50% urine, 4 h; quadratic fit
T1 construct: It was used without a stated label in the sandwich assays; also called SA

[2] = target: monomeric streptavidin variant mSA2; test: fluorescent binding assay, labeled mSA2 in 50% urine on thin film, 4 h exposure
Description: (§1) The binding function of rcSso7d.SA oligomer-PNIPAM thin films was measured using fluorescently-labeled monomeric streptavidin (mSA2) and fluorescently-labeled streptavidin (SA). Details for the expression, purification, and fluorescent labeling of mSA2 are provided below. Samples were prepared by serial dilution of SA or mSA2 in PBS (pH 7.4), human urine (diluted to 50% v/v in PBS, pH 7.4), or blood serum (obtained as the supernatant by centrifuging whole blood at 1500×g for 10 minutes, then diluted to 50% v/v in PBS, pH 7.4). 0.5 μL drops of solutions containing serially diluted fluorescent mSA2 and fluorescent SA samples in PBS (pH 7.4) were gently applied to the surface of each bioconjugate thin film. Films were incubated in a sealed chamber saturated with water vapor at room temperature to prevent to prevent drying of the applied fluorescent samples. […] Fluorescence microscopy images were acquired at 4× magnification using a Cy5 filter set and exposure time of 5000 ms on an Olympus IX-81 inverted fluorescence microscope with an AxioCam HRC CCD camera. Fluorescent intensity was calculated using ImageJ software⁶⁷ by determining the average fluorescent signal in a rectangular area of the fluorescent image free of defects and occupying no less than half of the full sample application area.
(§2) To evaluate how the apparent size-based diffusion properties translated to biosensing capabilities, binding curves were measured using SA and mSA2 solutions in buffer. Binding curves were fit with a quadratic model that is a function of three parameters: the average MFI per binding event a, the total concentration of binding sites [P]T, and the apparent dissociation constant K_{d,app} describing the binding equilibrium between analyte and binding sites within the thin film.

streptavidin [3] = target: T1, streptavidin; test: apparent Kd (Kd,app); fluorescent binding curve, labeled SA in PBS, 4 h exposure; quadratic fit
streptavidin [4] = target: T1, streptavidin; test: apparent Kd (Kd,app); fluorescent binding curve, labeled SA in 50% blood serum, 4 h; quadratic fit
streptavidin [5] = target: T1, streptavidin; test: apparent Kd (Kd,app); fluorescent binding curve, labeled SA in PBS, 0.5 h exposure; quadratic fit
streptavidin [6] = target: T1, streptavidin; test: fluorescent binding curve, labeled SA in 50% blood serum, 4 h
Description: as §1, with “film.” for “film. Films were incubated in a sealed chamber saturated with water vapor at room temperature to prevent to prevent drying of the applied fluorescent samples.”
(§3) To evaluate how the apparent size-based diffusion properties translated to biosensing capabilities, binding curves were measured using SA and mSA2 solutions in buffer. […]

[7] = target: monomeric streptavidin variant mSA2; test: fluorescent binding assay, labeled mSA2 in 50% blood serum on thin film, 4 h exposure
Description: as §1, §2

[8] = target: monomeric streptavidin variant mSA2; test: apparent Kd (Kd,app); fluorescent binding curve, labeled mSA2 in 50% urine, 4 h; quadratic fit
streptavidin [9] = target: T1, streptavidin; test: sandwich assay: SA in 50% blood serum, biotin-HRP/TMB detection
Description: (§4) Each well was submerged in 1 mL of 1% BSA in Milli-Q water, and the 12-well plate was incubated at 37° C. for 30 minutes. The wells were rinsed twice by adding 2 mL of Milli-Q water and gently shaking the well plate at 70 rpm for 5 minutes. 1 mL of streptavidin diluted in PBS, urine, or blood serum (prepared as described in the Fluorescent Assays section) containing 0.1% BSA was then added to each well, and the well plate was shaken at 70 rpm for 4 hours at room temperature. Wells were rinsed twice with 2 mL of Milli-Q water then twice with 2 mL of 0.1% BSA in Milli-Q water by shaking at 70 rpm for 5 minutes. After rinsing, wells were submerged in 1 mL of 200 ng/mL biotin-HRP in Milli-Q water containing 0.1% BSA, and the well plate was shaken at 70 rpm for 1 hour at room temperature. Wells were then rinsed with water and 0.1% BSA as described previously. 1 mL of solution from a Pierce TMB substrate kit (Thermo Fisher Scientific) was added to each well, and the well plate was shaken vigorously at 125 rpm for 15 minutes at room temperature. 1 mL of 2M H2SO4 was added to each well, and the absorbance at 450 nm was read using a Tecan Infinite M200 PRO plate reader.
(§5) The general procedure for this proof-of-concept experiment is diagrammed in FIG. 28. Films were first exposed to SA solutions and rinsed to remove unbound analyte. Taking advantage of the strong interaction between SA and biotin, thin films were then submerged in a solution of biotinylated horseradish peroxidase (biotin-HRP). Bound SA was detected colorimetrically through the HRP-mediated oxidation of 3,3′,5,5′-tetramethylbenzidine (TMB). Attempts to perform this assay using mSA2 as the analyte were unsuccessful, even when run on an rcSso7d.SA monolayer.

streptavidin [10] = target: T1, streptavidin; test: fluorescent binding curve fits, labeled SA in PBS, 30 min exposure
Description: as §1, with “film.” for “film. Films were incubated in a sealed chamber saturated with water vapor at room temperature to prevent to prevent drying of the applied fluorescent samples.”
as §3

streptavidin [11] = target: T1, streptavidin; test: apparent Kd (Kd,app); fluorescent binding curve, labeled SA in 50% urine, 4 h; quadratic fit
[12] = target: monomeric streptavidin variant mSA2; test: fluorescent binding curve, labeled mSA2 in 50% blood serum, 4 h; quadratic fit
streptavidin [13] = target: T1, streptavidin; test: fluorescent binding curve, labeled SA in 50% blood serum, 4 h; quadratic fit
streptavidin [14] = target: T1, streptavidin; test: fluorescent binding curve, labeled SA in PBS, 4 h exposure; quadratic fit
[15] = target: monomeric streptavidin variant mSA2; test: apparent Kd (Kd,app); fluorescent binding curve, labeled mSA2 in 50% blood serum, 4 h; quadratic fit
streptavidin [16] = target: T1, streptavidin; test: sandwich assay, SA in 50% blood serum, detection with biotin-HRP and TMB
Description: as §4, §5

streptavidin [17] = target: T1, streptavidin; test: sandwich assay, SA in PBS, detection with biotin-HRP and TMB, absorbance at 450 nm
Description: as §4
The general procedure for this proof-of-concept experiment is diagrammed in FIG. 28. […] Bound SA was detected colorimetrically through the HRP-mediated oxidation of 3,3′,5,5′-tetramethylbenzidine (TMB). […]

streptavidin [18] = target: T1, streptavidin; test: fluorescent binding assay, labeled SA in 50% urine on thin film, 4 h exposure
streptavidin [19] = target: T1, streptavidin; test: fluorescent binding assay, labeled SA in 50% blood serum on thin film, 4 h exposure
streptavidin [20] = target: T1, streptavidin; test: sandwich assay: SA in 50% urine, biotin-HRP/TMB detection
Description: as §4, §5

[21] = target: monomeric streptavidin variant mSA2; test: fluorescent binding curves, labeled mSA2 in 50% urine or 50% blood serum, 4 h
BSA = target: T2, BSA (bovine, UniProt P02769); test: fluorescence of Alexa Fluor 488-labeled BSA retained in a 144 nm 3xSP77.6k thin film after rinsing with water for 0-30 s
T2 construct: full protein, fluorescently labeled; non-specific retention control; also called BSA labeled with Alexa Fluor 488

[22] = target: monomeric streptavidin variant mSA2; test: fluorescent binding curve, labeled mSA2 in 50% urine, 4 h; quadratic fit
streptavidin [23] = target: T1, streptavidin; test: apparent Kd (Kd,app); fluorescent binding curve, labeled SA in PBS, 8 h exposure; quadratic fit

T1 sequence (P22629 37-163 limits assumed): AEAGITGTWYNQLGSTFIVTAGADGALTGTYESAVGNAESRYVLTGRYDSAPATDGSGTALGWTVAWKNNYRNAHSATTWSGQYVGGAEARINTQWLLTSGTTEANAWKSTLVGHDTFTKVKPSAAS
T2 sequence (P02769 25-607 limits assumed): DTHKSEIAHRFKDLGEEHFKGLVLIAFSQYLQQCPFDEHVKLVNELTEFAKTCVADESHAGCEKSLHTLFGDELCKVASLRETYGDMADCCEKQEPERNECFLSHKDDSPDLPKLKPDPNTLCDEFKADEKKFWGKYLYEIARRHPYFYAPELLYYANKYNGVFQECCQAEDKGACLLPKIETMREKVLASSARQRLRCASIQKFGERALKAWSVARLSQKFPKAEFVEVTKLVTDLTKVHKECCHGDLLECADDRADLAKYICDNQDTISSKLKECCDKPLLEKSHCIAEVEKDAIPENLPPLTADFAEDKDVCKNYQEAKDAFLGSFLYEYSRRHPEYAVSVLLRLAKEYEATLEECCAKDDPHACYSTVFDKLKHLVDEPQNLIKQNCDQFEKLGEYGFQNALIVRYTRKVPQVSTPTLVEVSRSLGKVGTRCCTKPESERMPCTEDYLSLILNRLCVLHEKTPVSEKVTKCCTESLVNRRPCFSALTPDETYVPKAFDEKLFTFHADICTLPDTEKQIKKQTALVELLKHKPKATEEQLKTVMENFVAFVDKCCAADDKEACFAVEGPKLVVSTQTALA

B1: 3xSP77.6k thin film (3x rcSso7d.SA-PNIPAM conjugate, PNIPAM Mn 77.6 kDa) (designed binder)
chain: MGSSHHHHHHSSGLVPRGSHMCATVKFTYQGEEKQVDISKIKIVARDGQYIDFKYDEGGGAYGYGWVSEKDAPKELLQMLEKQGGGGSGGGGSMATVKFTYQGEEKQVDISKIKIVARDGQYIDFKYDEGGGAYGYGWVSEKDAPKELLQMLEKQGGGGSGGGGSMATVKFTYQGEEKQVDISKIKIVARDGQYIDFKYDEGGGAYGYGWVSEKDAPKELLQMLEKQGG
modifications: maleimide end-functionalized PNIPAM (Mn 77.6 kDa) on the N-terminal Cys; film lightly crosslinked with glutaraldehyde
[P]T (total concentration of binding sites) (streptavidin [1]): 0.3 nM
Limit of Detection [2]: 14 nM
Kd (streptavidin [3]): 17 µM
Kd (streptavidin [4]): 40 µM
Kd (streptavidin [5]): 80 µM
reduction in LOD relative to rcSso7d.SA monolayer (streptavidin [6]): ~2 fold
Limit of Detection [7]: 56 nM
Kd [8]: 31 µM
LOD (streptavidin [9]): 85 nM
binding sites accessed relative to the 3×SP9.6k film (streptavidin [10]): ~4 fold
Kd (streptavidin [11]): 50 µM
[P]T (total concentration of binding sites) [12]: 4.5 nM
[P]T (total concentration of binding sites) (streptavidin [13]): 0.6 nM
[P]T (total concentration of binding sites) (streptavidin [14]): 0.41 nM
Kd [15]: 35 µM
LOD relative to rcSso7d.SA monolayer (streptavidin [16]): 2 fold
LOD relative to rcSso7d.SA monolayer (streptavidin [17]): ~2 fold
Limit of Detection (streptavidin [18]): 800 nM
Limit of Detection (streptavidin [19]): 420 nM
LOD (streptavidin [20]): 33 nM
LOD relative to rcSso7d.SA monolayer [21]: 2 orders of magnitude lower
binding result (BSA): no binding (tested: 10 µM)
[P]T (total concentration of binding sites) [22]: 15 nM
Kd (streptavidin [23]): 15 µM
